In publication PMC314469, “Protein Interaction Networks by Proteome Peptide Scanning” (PLoS Biology, 2004):
One block for each binder: values may come before it.

Assays:
Experiment in all cases: SPOT array
[1] = molecular target: T1, Boi1 SH3 (BOI1_YEAST), P38041
T1 chain: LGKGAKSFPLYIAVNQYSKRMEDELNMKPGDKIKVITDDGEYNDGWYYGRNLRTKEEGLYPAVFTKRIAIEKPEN

[2] = molecular target: T2, Boi2 SH3 (BOI2_YEAST), P39969
T2 chain: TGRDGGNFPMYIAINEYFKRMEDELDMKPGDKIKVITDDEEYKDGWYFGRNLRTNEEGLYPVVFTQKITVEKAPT

[3] = molecular target: T3, Myo5 SH3 (MYO5_YEAST), Q04439
T3 chain: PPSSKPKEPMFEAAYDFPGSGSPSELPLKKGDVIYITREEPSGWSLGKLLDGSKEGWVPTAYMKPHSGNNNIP

[4] = molecular target: T4, Rvs167 SH3 (RV167_YEAST), P39743
T4 chain: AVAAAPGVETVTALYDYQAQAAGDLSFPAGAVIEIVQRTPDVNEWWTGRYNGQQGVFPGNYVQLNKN

[5] = molecular target: Sho1 SH3 (SHO1_YEAST), P40073
[6] = molecular target: T5, Yfr024 SH3 (LSB3_YEAST), P43603
T5 chain: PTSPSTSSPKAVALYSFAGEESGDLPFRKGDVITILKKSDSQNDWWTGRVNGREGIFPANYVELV

[7] = molecular target: T6, Yhr016c SH3 (YSC84_YEAST), P32793
T6 chain: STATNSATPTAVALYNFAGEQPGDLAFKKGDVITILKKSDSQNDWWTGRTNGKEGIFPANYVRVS

Sequence of Sho1 SH3 (SHO1_YEAST), P40073 (P40073 295-366): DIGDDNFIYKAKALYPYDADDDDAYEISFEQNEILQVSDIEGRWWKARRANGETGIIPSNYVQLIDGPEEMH

B1: YHR204W 260-273 (peptide)
chain: FHPEKLTPYTPMTG
- normalised SPOT signal, Boehringer light units (BLU); mean over the file's lines of this peptide [1]: 95.4
- normalised SPOT signal, Boehringer light units (BLU); mean over the file's lines of this peptide [2]: 19.5
- normalised SPOT signal, Boehringer light units (BLU); mean over the file's lines of this peptide [3]: 96.5
- normalised SPOT signal, Boehringer light units (BLU); mean over the file's lines of this peptide [4]: 12.7
- normalised SPOT signal, Boehringer light units (BLU); mean over the file's lines of this peptide [5]: 25.1
- normalised SPOT signal, Boehringer light units (BLU); mean over the file's lines of this peptide [6]: 45.9
- normalised SPOT signal, Boehringer light units (BLU); mean over the file's lines of this peptide [7]: 42

B2: YDR490C 268-281 (peptide)
chain: FGTAKILPEEPSNT
- normalised SPOT signal, Boehringer light units (BLU); mean over the file's lines of this peptide [1]: 35.5
- normalised SPOT signal, Boehringer light units (BLU); mean over the file's lines of this peptide [2]: 7.7
- normalised SPOT signal, Boehringer light units (BLU); mean over the file's lines of this peptide [3]: 153
- normalised SPOT signal, Boehringer light units (BLU); mean over the file's lines of this peptide [4]: 23.2
- normalised SPOT signal, Boehringer light units (BLU); mean over the file's lines of this peptide [5]: 183
- normalised SPOT signal, Boehringer light units (BLU); mean over the file's lines of this peptide [6]: 0.1
- normalised SPOT signal, Boehringer light units (BLU); mean over the file's lines of this peptide [7]: 30.3

B3: YDL172C 130-143 (peptide)
chain: FLLKKMFPAPPLPT
- normalised SPOT signal, Boehringer light units (BLU); mean over the file's lines of this peptide [1]: 235
- normalised SPOT signal, Boehringer light units (BLU); mean over the file's lines of this peptide [2]: 27.9
- normalised SPOT signal, Boehringer light units (BLU); mean over the file's lines of this peptide [3]: 23700
- normalised SPOT signal, Boehringer light units (BLU); mean over the file's lines of this peptide [4]: 52.4
- normalised SPOT signal, Boehringer light units (BLU); mean over the file's lines of this peptide [5]: 149
- normalised SPOT signal, Boehringer light units (BLU); mean over the file's lines of this peptide [6]: 132
- normalised SPOT signal, Boehringer light units (BLU); mean over the file's lines of this peptide [7]: 40.3

B4: YDR310C 827-840 (peptide)
chain: FFYRRDIPDVPITT
- normalised SPOT signal, Boehringer light units (BLU); mean over the file's lines of this peptide [1]: 15400
- normalised SPOT signal, Boehringer light units (BLU); mean over the file's lines of this peptide [2]: 33.9
- normalised SPOT signal, Boehringer light units (BLU); mean over the file's lines of this peptide [3]: 138
- normalised SPOT signal, Boehringer light units (BLU); mean over the file's lines of this peptide [4]: 253
- normalised SPOT signal, Boehringer light units (BLU); mean over the file's lines of this peptide [5]: 839
- normalised SPOT signal, Boehringer light units (BLU); mean over the file's lines of this peptide [6]: 838
- normalised SPOT signal, Boehringer light units (BLU); mean over the file's lines of this peptide [7]: 362

B7: YJL201W 254-267 (peptide)
chain: FIKNKAKPLIPIEL
- normalised SPOT signal, Boehringer light units (BLU); mean over the file's lines of this peptide [1]: 700
- normalised SPOT signal, Boehringer light units (BLU); mean over the file's lines of this peptide [2]: 10.9
- normalised SPOT signal, Boehringer light units (BLU); mean over the file's lines of this peptide [3]: 656
- normalised SPOT signal, Boehringer light units (BLU); mean over the file's lines of this peptide [4]: 952
- normalised SPOT signal, Boehringer light units (BLU); mean over the file's lines of this peptide [5]: 410
- normalised SPOT signal, Boehringer light units (BLU); mean over the file's lines of this peptide [6]: 146
- normalised SPOT signal, Boehringer light units (BLU); mean over the file's lines of this peptide [7]: 72

B9: YDR124W 275-288 (peptide)
chain: EYFPREYPKDPVSE
- normalised SPOT signal, Boehringer light units (BLU); mean over the file's lines of this peptide [1]: 456
- normalised SPOT signal, Boehringer light units (BLU); mean over the file's lines of this peptide [2]: 5.6
- normalised SPOT signal, Boehringer light units (BLU); mean over the file's lines of this peptide [3]: 272
- normalised SPOT signal, Boehringer light units (BLU); mean over the file's lines of this peptide [4]: 104
- normalised SPOT signal, Boehringer light units (BLU); mean over the file's lines of this peptide [5]: 31.2
- normalised SPOT signal, Boehringer light units (BLU); mean over the file's lines of this peptide [6]: 93.1
- normalised SPOT signal, Boehringer light units (BLU); mean over the file's lines of this peptide [7]: 22.8

B11: YIL125W 149-162 (peptide)
chain: FGSNKNNPVPPELT
- normalised SPOT signal, Boehringer light units (BLU); mean over the file's lines of this peptide [1]: 58.8
- normalised SPOT signal, Boehringer light units (BLU); mean over the file's lines of this peptide [2]: 13.4
- normalised SPOT signal, Boehringer light units (BLU); mean over the file's lines of this peptide [3]: 172
- normalised SPOT signal, Boehringer light units (BLU); mean over the file's lines of this peptide [4]: 27.1
- normalised SPOT signal, Boehringer light units (BLU); mean over the file's lines of this peptide [5]: 30.7
- normalised SPOT signal, Boehringer light units (BLU); mean over the file's lines of this peptide [6]: 70
- normalised SPOT signal, Boehringer light units (BLU); mean over the file's lines of this peptide [7]: 37.5

B12: YGR281W 89-102 (peptide)
chain: FLHSKKIPEVPQTD
- normalised SPOT signal, Boehringer light units (BLU); mean over the file's lines of this peptide [1]: 37.9
- normalised SPOT signal, Boehringer light units (BLU); mean over the file's lines of this peptide [2]: 8.2
- normalised SPOT signal, Boehringer light units (BLU); mean over the file's lines of this peptide [3]: 288
- normalised SPOT signal, Boehringer light units (BLU); mean over the file's lines of this peptide [4]: 15.3
- normalised SPOT signal, Boehringer light units (BLU); mean over the file's lines of this peptide [5]: 1190
- normalised SPOT signal, Boehringer light units (BLU); mean over the file's lines of this peptide [6]: 15.3
- normalised SPOT signal, Boehringer light units (BLU); mean over the file's lines of this peptide [7]: 25.6

B13: YGR019W 335-348 (peptide)
chain: FHDPKFIPNKPYRQ
- normalised SPOT signal, Boehringer light units (BLU); mean over the file's lines of this peptide [1]: 518
- normalised SPOT signal, Boehringer light units (BLU); mean over the file's lines of this peptide [2]: 16.3
- normalised SPOT signal, Boehringer light units (BLU); mean over the file's lines of this peptide [3]: 300
- normalised SPOT signal, Boehringer light units (BLU); mean over the file's lines of this peptide [4]: 28.7
- normalised SPOT signal, Boehringer light units (BLU); mean over the file's lines of this peptide [5]: 122
- normalised SPOT signal, Boehringer light units (BLU); mean over the file's lines of this peptide [6]: 498
- normalised SPOT signal, Boehringer light units (BLU); mean over the file's lines of this peptide [7]: 113

B16: YJR092W 847-860 (peptide)
chain: FEEDKMTPSTPVRS
- normalised SPOT signal, Boehringer light units (BLU); mean over the file's lines of this peptide [1]: 12
- normalised SPOT signal, Boehringer light units (BLU); mean over the file's lines of this peptide [2]: 7.9
- normalised SPOT signal, Boehringer light units (BLU); mean over the file's lines of this peptide [3]: 248
- normalised SPOT signal, Boehringer light units (BLU); mean over the file's lines of this peptide [4]: 59.7
- normalised SPOT signal, Boehringer light units (BLU); mean over the file's lines of this peptide [5]: 65
- normalised SPOT signal, Boehringer light units (BLU); mean over the file's lines of this peptide [6]: 11100
- normalised SPOT signal, Boehringer light units (BLU); mean over the file's lines of this peptide [7]: 3920

Continued, values first:

- normalised SPOT signal, Boehringer light units (BLU); mean over the file's lines of this peptide [1]: 60.7
- normalised SPOT signal, Boehringer light units (BLU); mean over the file's lines of this peptide [2]: 269
- normalised SPOT signal, Boehringer light units (BLU); mean over the file's lines of this peptide [3]: 359
- normalised SPOT signal, Boehringer light units (BLU); mean over the file's lines of this peptide [4]: 585
- normalised SPOT signal, Boehringer light units (BLU); mean over the file's lines of this peptide [5]: 12.3
- normalised SPOT signal, Boehringer light units (BLU); mean over the file's lines of this peptide [6]: 264
- normalised SPOT signal, Boehringer light units (BLU); mean over the file's lines of this peptide [7]: 40.9
B5: YPR144C 134-147 (peptide)
chain: FASEKGAPFFPNKT

- normalised SPOT signal, Boehringer light units (BLU); mean over the file's lines of this peptide [1]: 892
- normalised SPOT signal, Boehringer light units (BLU); mean over the file's lines of this peptide [2]: 28.9
- normalised SPOT signal, Boehringer light units (BLU); mean over the file's lines of this peptide [3]: 99
- normalised SPOT signal, Boehringer light units (BLU); mean over the file's lines of this peptide [4]: 99.4
- normalised SPOT signal, Boehringer light units (BLU); mean over the file's lines of this peptide [5]: 75.1
- normalised SPOT signal, Boehringer light units (BLU); mean over the file's lines of this peptide [6]: 154
- normalised SPOT signal, Boehringer light units (BLU); mean over the file's lines of this peptide [7]: 29.3
B6: YLL041C 36-49 (peptide)
chain: FKVYRWNPDEPSAK

- normalised SPOT signal, Boehringer light units (BLU); mean over the file's lines of this peptide [1]: 96
- normalised SPOT signal, Boehringer light units (BLU); mean over the file's lines of this peptide [2]: 21.7
- normalised SPOT signal, Boehringer light units (BLU); mean over the file's lines of this peptide [3]: 188
- normalised SPOT signal, Boehringer light units (BLU); mean over the file's lines of this peptide [4]: 40
- normalised SPOT signal, Boehringer light units (BLU); mean over the file's lines of this peptide [5]: 76
- normalised SPOT signal, Boehringer light units (BLU); mean over the file's lines of this peptide [6]: 74.4
- normalised SPOT signal, Boehringer light units (BLU); mean over the file's lines of this peptide [7]: 116
B8: YPR101W 28-41 (peptide)
chain: FANIKREPVHPEIR

- normalised SPOT signal, Boehringer light units (BLU); mean over the file's lines of this peptide [1]: 616
- normalised SPOT signal, Boehringer light units (BLU); mean over the file's lines of this peptide [2]: 0.7
- normalised SPOT signal, Boehringer light units (BLU); mean over the file's lines of this peptide [3]: 211
- normalised SPOT signal, Boehringer light units (BLU); mean over the file's lines of this peptide [4]: 148
- normalised SPOT signal, Boehringer light units (BLU); mean over the file's lines of this peptide [5]: 126
- normalised SPOT signal, Boehringer light units (BLU); mean over the file's lines of this peptide [6]: 574
- normalised SPOT signal, Boehringer light units (BLU); mean over the file's lines of this peptide [7]: 33.1
B10: YKL171W 669-682 (peptide)
chain: FENRKHQPFTPKGM

- normalised SPOT signal, Boehringer light units (BLU); mean over the file's lines of this peptide [1]: 73.8
- normalised SPOT signal, Boehringer light units (BLU); mean over the file's lines of this peptide [2]: 111
- normalised SPOT signal, Boehringer light units (BLU); mean over the file's lines of this peptide [3]: 143
- normalised SPOT signal, Boehringer light units (BLU); mean over the file's lines of this peptide [4]: 436
- normalised SPOT signal, Boehringer light units (BLU); mean over the file's lines of this peptide [5]: 114
- normalised SPOT signal, Boehringer light units (BLU); mean over the file's lines of this peptide [6]: 485
- normalised SPOT signal, Boehringer light units (BLU); mean over the file's lines of this peptide [7]: 288
B14: YOR001W 401-414 (peptide)
chain: FEYSKYRPLTPSSE

- normalised SPOT signal, Boehringer light units (BLU); mean over the file's lines of this peptide [1]: 102
- normalised SPOT signal, Boehringer light units (BLU); mean over the file's lines of this peptide [2]: 1.2
- normalised SPOT signal, Boehringer light units (BLU); mean over the file's lines of this peptide [3]: 261
- normalised SPOT signal, Boehringer light units (BLU); mean over the file's lines of this peptide [4]: 72.9
- normalised SPOT signal, Boehringer light units (BLU); mean over the file's lines of this peptide [5]: 4.9
- normalised SPOT signal, Boehringer light units (BLU); mean over the file's lines of this peptide [6]: 173
- normalised SPOT signal, Boehringer light units (BLU); mean over the file's lines of this peptide [7]: 26.6
B15: YMR283C 55-68 (peptide)
chain: FLQDRVIPIFPHYP
